Assay results as given in PMC9482650, “Quantitative fragmentomics allow affinity mapping of interactomes” (Nature Communications, 2022).
Substitutions are numbered along the chain they refer to.

T1: ARHGAP21, Q5T5U3
T1 sequence (Q5T5U3 45-169, limits assumed, looked up): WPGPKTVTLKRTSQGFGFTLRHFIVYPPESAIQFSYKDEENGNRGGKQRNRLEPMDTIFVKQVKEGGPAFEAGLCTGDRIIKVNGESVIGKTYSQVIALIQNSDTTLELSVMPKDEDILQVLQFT

T2: DLG3_3, Q92796
T2 sequence (Q92796 374-475, limits assumed, looked up): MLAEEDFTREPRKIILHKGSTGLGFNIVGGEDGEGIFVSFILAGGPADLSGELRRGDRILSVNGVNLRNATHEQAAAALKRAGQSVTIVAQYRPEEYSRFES

T3: LIN7A, O14910
T3 sequence (O14910 103-200, limits assumed, looked up): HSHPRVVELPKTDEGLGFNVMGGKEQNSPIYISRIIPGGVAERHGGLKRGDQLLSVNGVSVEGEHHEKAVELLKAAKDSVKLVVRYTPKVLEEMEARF

T4: LIN7B, Q9HAP6
T4 sequence (Q9HAP6 88-185, limits assumed, looked up): T3 sequence (O14910 103-200, limits assumed, looked up) with S2A, V20I, I35V, E42D, H65Q, K77Q, D78G, K89R

T5: MPDZ_5, O75970
T5 sequence (O75970 695-796, limits assumed, looked up): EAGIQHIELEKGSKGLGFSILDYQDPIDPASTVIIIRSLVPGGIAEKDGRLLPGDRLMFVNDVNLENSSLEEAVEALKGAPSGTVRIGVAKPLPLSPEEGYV

T6: PARD3B_1, Q8TEW8
T6 sequence (Q8TEW8 196-299, limits assumed, looked up): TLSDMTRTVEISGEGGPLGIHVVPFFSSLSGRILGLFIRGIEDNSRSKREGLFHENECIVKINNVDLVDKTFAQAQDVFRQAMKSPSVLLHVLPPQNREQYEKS

T7: PCLO, Q9Y6V0
T7 sequence (Q9Y6V0 4491-4600, limits assumed, looked up): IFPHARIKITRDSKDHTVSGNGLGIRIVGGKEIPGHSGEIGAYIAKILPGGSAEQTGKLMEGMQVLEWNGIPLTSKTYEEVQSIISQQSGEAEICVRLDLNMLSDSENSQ

T8: PDZD7_3, Q9H5P4
T8 sequence (Q9H5P4 857-944, limits assumed, looked up): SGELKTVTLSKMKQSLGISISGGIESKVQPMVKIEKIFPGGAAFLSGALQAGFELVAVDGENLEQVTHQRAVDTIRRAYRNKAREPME

T9: SNTG2, Q9NY99
T9 sequence (Q9NY99 68-166, limits assumed, looked up): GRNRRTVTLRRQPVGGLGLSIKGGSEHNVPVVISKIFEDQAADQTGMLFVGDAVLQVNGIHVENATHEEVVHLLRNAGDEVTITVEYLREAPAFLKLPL

T10: TX1BP3, O14907
T10 sequence (O14907 10-122, limits assumed, looked up): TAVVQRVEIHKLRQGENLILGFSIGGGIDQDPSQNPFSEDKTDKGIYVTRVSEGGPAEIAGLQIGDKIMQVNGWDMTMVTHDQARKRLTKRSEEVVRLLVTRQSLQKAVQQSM


Key:
Experiment in all cases: holdup assay
Set-up in all cases: key: below the threshold = too weak to quantify, mostly under pKd 3.1 to 4
Settings in all cases: plain residues with an end cap or a label only (N-terminal biotin on a linker: ttds)
ARHGAP21, Q5T5U3 = target: T1, ARHGAP21, Q5T5U3
DLG1_1, Q12959 = target: DLG1_1, Q12959
DLG1_2, Q12959 = target: DLG1_2, Q12959
DLG1_3, Q12959 = target: DLG1_3, Q12959
DLG2_2, Q15700 = target: DLG2_2, Q15700
Chain of DLG2_2, Q15700 (Q15700 189-283): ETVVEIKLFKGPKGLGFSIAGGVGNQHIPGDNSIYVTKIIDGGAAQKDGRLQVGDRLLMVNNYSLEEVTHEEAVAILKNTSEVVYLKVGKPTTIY

DLG3_3, Q92796 = target: T2, DLG3_3, Q92796
FRMPD4, Q14CM0 = target: FRMPD4, Q14CM0
Chain of FRMPD4, Q14CM0 (Q14CM0 67-160): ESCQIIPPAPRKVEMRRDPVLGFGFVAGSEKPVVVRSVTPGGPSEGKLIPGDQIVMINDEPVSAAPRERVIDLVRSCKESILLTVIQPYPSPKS

GRASP, Q7Z6J2 = target: GRASP, Q7Z6J2
Chain of GRASP, Q7Z6J2 (Q7Z6J2 96-193): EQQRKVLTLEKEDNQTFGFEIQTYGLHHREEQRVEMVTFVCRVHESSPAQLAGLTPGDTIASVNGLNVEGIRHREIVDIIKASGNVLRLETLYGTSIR

GRIP2_3, Q9C0E4 = target: GRIP2_3, Q9C0E4
Chain of GRIP2_3, Q9C0E4 (Q9C0E4 238-339): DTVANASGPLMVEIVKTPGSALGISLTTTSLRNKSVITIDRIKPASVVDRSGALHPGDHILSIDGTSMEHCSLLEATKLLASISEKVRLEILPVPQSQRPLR

GRIP2_5, Q9C0E4 = target: GRIP2_5, Q9C0E4
Chain of GRIP2_5, Q9C0E4 (Q9C0E4 544-642): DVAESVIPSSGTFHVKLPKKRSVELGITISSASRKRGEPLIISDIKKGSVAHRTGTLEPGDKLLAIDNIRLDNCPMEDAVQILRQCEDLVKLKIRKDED

GRIP2_7, Q9C0E4 = target: GRIP2_7, Q9C0E4
Chain of GRIP2_7, Q9C0E4 (Q9C0E4 934-1023): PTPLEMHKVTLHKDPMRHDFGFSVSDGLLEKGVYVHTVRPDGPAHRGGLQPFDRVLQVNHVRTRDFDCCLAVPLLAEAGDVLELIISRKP

IL16_3, Q14005 = target: IL16_3, Q14005
Chain of IL16_3, Q14005 (Q14005 1107-1207): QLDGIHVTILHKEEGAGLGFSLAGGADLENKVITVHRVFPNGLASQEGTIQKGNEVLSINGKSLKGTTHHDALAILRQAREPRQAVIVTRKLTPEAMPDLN

Inadl_10, Q8NI35 = target: Inadl_10, Q8NI35
Chain of Inadl_10, Q8NI35 (Q8NI35 1673-1763): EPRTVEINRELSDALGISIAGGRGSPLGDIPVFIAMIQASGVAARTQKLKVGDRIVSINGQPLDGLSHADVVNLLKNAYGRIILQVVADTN

Inadl_5, Q8NI35 = target: Inadl_5, Q8NI35
Chain of Inadl_5, Q8NI35 (Q8NI35 673-780): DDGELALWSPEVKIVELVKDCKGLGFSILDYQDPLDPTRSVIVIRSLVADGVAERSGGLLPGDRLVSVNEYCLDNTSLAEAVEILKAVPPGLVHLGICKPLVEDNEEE

LDB3, O75112 = target: LDB3, O75112
Chain of LDB3, O75112 (O75112 1-94): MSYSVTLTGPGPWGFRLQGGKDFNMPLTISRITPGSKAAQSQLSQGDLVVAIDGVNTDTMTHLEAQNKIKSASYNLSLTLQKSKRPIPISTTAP

LIN7A, O14910 = target: T3, LIN7A, O14910
LIN7B, Q9HAP6 = target: T4, LIN7B, Q9HAP6
LNX1_3, Q8TBB1 = target: LNX1_3, Q8TBB1
Chain of LNX1_3, Q8TBB1 (Q8TBB1 500-596): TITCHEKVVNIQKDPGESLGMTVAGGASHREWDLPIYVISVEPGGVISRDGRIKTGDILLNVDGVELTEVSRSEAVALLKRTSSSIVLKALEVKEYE

MAGI3_2, Q5TCQ9 = target: MAGI3_2, Q5TCQ9
Chain of MAGI3_2, Q5TCQ9 (Q5TCQ9 398-503): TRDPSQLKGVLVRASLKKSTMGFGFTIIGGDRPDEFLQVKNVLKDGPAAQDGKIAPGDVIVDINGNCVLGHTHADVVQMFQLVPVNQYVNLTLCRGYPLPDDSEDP

MAST2, Q6P0Q8 = target: MAST2, Q6P0Q8
Chain of MAST2, Q6P0Q8 (Q6P0Q8 1099-1202): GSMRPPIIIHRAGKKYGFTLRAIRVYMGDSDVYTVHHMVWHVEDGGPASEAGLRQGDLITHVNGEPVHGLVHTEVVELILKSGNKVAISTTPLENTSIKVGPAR

MPDZ_5, O75970 = target: T5, MPDZ_5, O75970
PARD3B_1, Q8TEW8 = target: T6, PARD3B_1, Q8TEW8
PCLO, Q9Y6V0 = target: T7, PCLO, Q9Y6V0
PDZD7_3, Q9H5P4 = target: T8, PDZD7_3, Q9H5P4
PICK1, Q9NRD5 = target: PICK1, Q9NRD5
Chain of PICK1, Q9NRD5 (Q9NRD5 17-115): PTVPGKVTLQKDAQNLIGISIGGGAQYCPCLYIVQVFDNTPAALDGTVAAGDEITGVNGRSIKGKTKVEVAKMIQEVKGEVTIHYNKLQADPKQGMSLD

SNTG2, Q9NY99 = target: T9, SNTG2, Q9NY99
TJP1_3, Q07157 = target: TJP1_3, Q07157
Chain of TJP1_3, Q07157 (Q07157 416-512): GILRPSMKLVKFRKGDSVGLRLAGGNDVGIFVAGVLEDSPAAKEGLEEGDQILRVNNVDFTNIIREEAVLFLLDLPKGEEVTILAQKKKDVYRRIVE

TX1BP3, O14907 = target: T10, TX1BP3, O14907

pKd (ARHGAP21, Q5T5U3) | pKd (DLG1_1, Q12959) | pKd (DLG1_2, Q12959) | pKd (DLG1_3, Q12959) | pKd (DLG2_2, Q15700) | pKd (DLG3_3, Q92796) | pKd (FRMPD4, Q14CM0) | pKd (GRASP, Q7Z6J2) | pKd (GRIP2_3, Q9C0E4) | pKd (GRIP2_5, Q9C0E4) | pKd (GRIP2_7, Q9C0E4) | pKd (IL16_3, Q14005) | pKd (Inadl_10, Q8NI35) | pKd (Inadl_5, Q8NI35) | pKd (LDB3, O75112) | pKd (LIN7A, O14910) | pKd (LIN7B, Q9HAP6) | pKd (LNX1_3, Q8TBB1) | pKd (MAGI3_2, Q5TCQ9) | pKd (MAST2, Q6P0Q8) | Binder | other results
3.63 | 5.01 | 5.5 | 3.86 | 5.21 | 3.88 | below the threshold | below the threshold | below the threshold | below the threshold | 3.64 | below the threshold | below the threshold | below the threshold | below the threshold | below the threshold | below the threshold | below the threshold | 4.6 | 5.56 | MERLRVETDV [ARHGEF16, Q5VV41] | pKd (MPDZ_5, O75970): 3.6; pKd (PARD3B_1, Q8TEW8): below the threshold; pKd (PCLO, Q9Y6V0): below the threshold; pKd (PDZD7_3, Q9H5P4): 4.08; pKd (PICK1, Q9NRD5): below the threshold; pKd (SNTG2, Q9NY99): 4.47; pKd (TJP1_3, Q07157): below the threshold; pKd (TX1BP3, O14907): 5.04
below the threshold | 4.73 | 5.16 | 4.12 | 4.69 | 4.42 | 3.93 | 3.67 | below the threshold | below the threshold | below the threshold | below the threshold | below the threshold | below the threshold | below the threshold | below the threshold | 4.09 | below the threshold | 4.85 | 5.76 | IQREDQETAV [DGKZ, Q13574] | pKd (MPDZ_5, O75970): below the threshold; pKd (PARD3B_1, Q8TEW8): below the threshold; pKd (PCLO, Q9Y6V0): below the threshold; pKd (PDZD7_3, Q9H5P4): 4.32; pKd (PICK1, Q9NRD5): below the threshold; pKd (SNTG2, Q9NY99): 4.95; pKd (TJP1_3, Q07157): below the threshold; pKd (TX1BP3, O14907): 4.18
3.58 | 4.12 | 4.67 | 4.08 | 4.18 | 3.97 | 4.45 | 4.22 | below the threshold | below the threshold | below the threshold | below the threshold | below the threshold | below the threshold | below the threshold | below the threshold | 4.22 | below the threshold | 3.69 | 5.88 | SPLHSLETSL [ATP2B1, P20020] | pKd (MPDZ_5, O75970): below the threshold; pKd (PARD3B_1, Q8TEW8): 4.02; pKd (PCLO, Q9Y6V0): below the threshold; pKd (PDZD7_3, Q9H5P4): 4.63; pKd (PICK1, Q9NRD5): below the threshold; pKd (SNTG2, Q9NY99): 4.66; pKd (TJP1_3, Q07157): below the threshold; pKd (TX1BP3, O14907): 4.45
